Test results published in patent publication US20190225675A1 (TUFTS UNIVERSITY, published 2019).
Positions count from the first letter of the chain named.

T1: Shiga-like toxin 2 (Stx2) (UniProt P09385 23-319; P09386 20-89)
T1 sequence 1: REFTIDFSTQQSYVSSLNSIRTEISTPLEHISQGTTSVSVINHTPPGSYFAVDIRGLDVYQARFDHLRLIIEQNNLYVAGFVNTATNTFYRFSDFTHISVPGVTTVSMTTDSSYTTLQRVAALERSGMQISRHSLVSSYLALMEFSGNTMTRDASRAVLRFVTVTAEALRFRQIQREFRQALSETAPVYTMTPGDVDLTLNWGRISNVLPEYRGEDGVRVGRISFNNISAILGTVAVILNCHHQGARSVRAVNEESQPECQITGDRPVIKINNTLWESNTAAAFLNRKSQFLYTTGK
T1 sequence 2: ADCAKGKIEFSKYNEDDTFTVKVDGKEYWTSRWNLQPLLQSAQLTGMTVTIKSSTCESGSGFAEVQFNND

B1: VNA-TcdA (toxin A binding heterodimer, AH3+AA6) (bispecific antibody)
chain: QGVQSQLQLVESGGGLVQPGGSLRLSCAASGFTLDYSSIGWFRQAPGKEREGVSCISSSGDSTKYADSVKGRFTTSRDNAKNTVYLQMNSLKPDDTAVYYCAAFRATMCGVFPLSPYGKDDWGKGTLVTVSSEPKTPKPQGGGGSGGGGSGGGGSQGVQSQVQLVESGGGLVQPGGSLRLSCAASGFTFSDYVMTWVRQAPGKGPEWIATINTDGSTMRDDSTKGRFTISRDNAKNTLYLQMTSLKPEDTALYYCARGRVISASAIRGAVRGPGTQVTVSSEPKTPKPQ
B2: Stx2-D10 (VHH)
VHH: TGGLVQAGGSLRLSCAASGVPFSDYTMAWFRQAPGKEREVVARITWRGGGPYYGNSGNGRFAISRDIAKSMVYLHMDSLKPEDTAVYYCAASRLRPALASMASDYDYWGQGTQVSVSS
B3: Stx2-G1 (VHH)
VHH: SGGGLVQPGESLRLSCVASASTFSTSLMGWVRQAPGKGLESVAEVRTTGGTFYAKSVAGRFTISRDNAKNTLYLQMNSLKAEDTGVYYCTAGAGPIATRYRGQGTQVTVSS
B4: Stx-A5 (VHH)
VHH: SGGGLVQPGGSLRLSCAALEFTLEDYAIAWFRQAPGKEREGVSCISKSGVTKYTDSVKGRFTVARDNAKSTVILQMNNLRPEDTAVYNCAAVRPVFVDSVCTLATRYTYWGEGTQVTVSS
B5: Stx-A4 (VHH)
VHH: SGGGLVQPGGSLRLSCAASGFTLGSYHIGWFRHPPGKEREGTSCLSSRGDYTKYAEAVKGRFTISRDNTKSTVYLQMNNLKPEDTGIYVCAAIRPVLSDSHCTLAARYNYWGQGTQVTVSS
B6: scFv#7 (scFv)
scFv: SYELTQPPSMSVALGQTAKVTCQGDNLENFYVQWHQQKPGQAPVTVIFQDNKRPSGIPDRFSGSNSGNTATLTISGARTEDEADYYCQSGHSSIGGVFGSGTSLTVLGQPAAAGGGGSGGGGSGGGGSARQVQLQESGPSLVKPSQTLSLTCTVSGFSLTGNSVTWVRQAPGNVPEWLGGISRGGRTYYDTALKSRLSITRDTSKRQVSLSLSSVTTEDTAMYFCARSAYSTLYDYEYAADIYDWGPGLLVTVSSTSGAPVPYPDPLEPRAA
B7: JIK-B12 (VHH)
VHH: QVQLVESGGGLVQAGNSLRLSCTASGVIFSIYTMGWFRQAPGKEREFVAAIGVADGTALVADSVTGRFTISRDNAKNTVYLHMNSLKPEDTAVYSCAAYLSPRVQSPYITDSRYQLWGQGTQVTVSS
B8: JIJ-E9 (VHH)
VHH: QVQLVETGGLVQPGGSLRLSCAASRSTTATIYSMNWYRQAPGKQRELVAGMTSDGQTNYATSVKGRFTISRDNAKNTVYLLMNSLKLEDTAVYYCYVKPWRLQGWDYWGQGTQVTVSS
B9: JIJ-F11 (VHH)
VHH: QVQLVESGGGLVQPGGSLRLSCAAPESIVNSRTMAWYRQAPGKQRERVATITTAGSPNYADSVKGRFAISRDNAKNTVYLQMNSLKPEDTAVYYCNTLLSTLPYGQGTQVTVSS
B10: JIJ-B8 (VHH)
VHH: QVQLVESGGGLVQPGGSLSVSCAASGSIARPGAMAWYRQAPGKERELVASITPGGLTNYADSVTGRFTISRDNAKRTVYLQMNSLQPEDTAVYYCHARIIPLGLGSEYRDHWGQGTQVTVSS
B11: JIK-F4 (VHH)
VHH: TGGGLVQAGGSLRLSCAASGRYAMGWFRQAPGKEREFVATISRSGAIREYADSVKGRFTISRDGAENTVYLEMNSLKPDDTAIYVCAEGRGATFNPEYAYWGQGTQVTVSS
B12: JIJ-C11 (VHH)
VHH: QVQLVETGGGLVQPGGSLGLSCVVASGRSINNYGMGWYRQAPGKQRELVAQISSGGTTNYAGSVEGRFTISRDNVKKMVYLQMNSLKPEDTAVYYCNSLLRTFSWGQGTQVTVSS
B13: JIK-B8 (VHH)
VHH: B12 VHH with T7S, G27E, G62D, Y80H, M83V
B14: JHE-D9 (VHH)
VHH: QVQLVESGGGLVQPGGSLRLSCAASGFIFSLYTMRWHRQAPGKERELVATITSATGITNYADSVKGRFIISRDDAKKTGYLQMNSLKPEDTAVYYCNAVRTTVSRDYWGQGTQVTVSS
B15: JIJ-D3 (VHH)
VHH: QVQLVETGGLVQPGGSLRLSCAASGLTFSSTAMAWFRQAPGKEREFVARISGAGITIYYSDSVKDRFTISRNNVENTVYLQMNSLKTEDTAVYYCAARRNTYTSDYNIPARYPYWGQGTQVTVSS
B16: JIK-B10 (VHH)
VHH: QVQLVETGGGLVQPGGSLRLSCAASGFTFSSYRMSWYRQAAGKERDVVATITANGVPTGYADSVMGRFTISRDNAKNTVYLEMNSLNPEDTAVYYCNAPRLHTSVGYWGQGTQVTVSS
B17: JHD-B6 (VHH)
VHH: QVQLVESGGGLVQPGGSLRLSCAASGSSFSRYAMRWYRQAPGKQRELVANINSRGTSNYADSVKGRFTISRDNAKNTVYLQMNSLKPEDTAVYYCNAEWLGRSEPSWGQGTQVTVSS
B18: JIJ-A12 (VHH)
VHH: QVQLVESGGGLVQPGGSLRLSCAASGIIFSIYTMGWYRQAPGKQRELVAAIPSGPSANATDSVGGRFTITRDNAENTVYLQMNDLKPEDTAVYYCNARRGPGIKNYWGQGTQVTVSS
B19: JDQ-B2 (VHH)
VHH: QVQLVESGGGLVQPGGSLRLSCTVSGSIFDLPGMNWYRQAPGAQRELVADISSDGRRTNYADSVKGRFTMSRDNAKKTVYLQMDSLKPDDTAVYYCNVKFTHHWGQGIQVTVSS
B20: JDQ-C5 (VHH)
VHH: B19 VHH with D30G, N35S, R56G, N59H, M70I, A75D
B21: JDO-E9 (VHH)
VHH: QVQLVESGGGLVRPGGSLRLSCVVSGFAYEMPMMGWYRQAPGNQRELVATIGTGGRMNYADSVKGRFTISRDNAKNTVYLQMNSLKPEDTAAYYCKIEFTNYWGQGTQVTVSS
B22: JDQ-F9 (VHH)
VHH: QVQLVESGGGLVQDGGSLRLSCTTSGSIDSFNAIEWYRQAPGKQRELVASISSDGRRTNYADSVKGRFTISGDNAKNTVYLQMNSLKPEDTAVYYCHRPFTHYWGQGTQVTVSS

Each binder was assayed against T2, Clostridium difficile toxin B (TcdB) (Clostridium difficile, UniProt P18177 2-2366) (assay: ELISA, toxin-coated plates, HRP-conjugated detection antibody).
T2 construct: mature

Binder	binding result
B1	no binding (tested: up to 125 nM)

These binders were tested against T1, Shiga-like toxin 2 (Stx2) (assay: not given).

Binder	EC50 (read off the curve) [nM]
B2	~0.3
B3	~0.1

Biological target: T1, Shiga-like toxin 2 (Stx2)
Assay: not given
Remark: another data set of the same source

Binder	EC50 (read off the curve) [nM]
B2	~0.3
B4	~0.8

Biological target: T1, Shiga-like toxin 2 (Stx2)
Assay: not given
Remark: another data set of the same source

Binder	EC50 (read off the curve) [nM]
B5	~8
B4	~0.8

The binders below were run against T3, Botulinum neurotoxin serotype A1 (BoNT/A) holotoxin (Clostridium botulinum, UniProt P0DPI0 2-1296) (assay: method not stated).
T3 construct: mature

Binder	Kd [nM]
B6	~1

The binders below were run against T4, Clostridium difficile toxin A (TcdA) (Clostridium difficile, UniProt P16154 1-2710) (assay: ELISA on plates coated with TcdA, HRP-conjugated detection antibody, A450).
T4 construct: mature
T4 sequence (P16154 whole entry): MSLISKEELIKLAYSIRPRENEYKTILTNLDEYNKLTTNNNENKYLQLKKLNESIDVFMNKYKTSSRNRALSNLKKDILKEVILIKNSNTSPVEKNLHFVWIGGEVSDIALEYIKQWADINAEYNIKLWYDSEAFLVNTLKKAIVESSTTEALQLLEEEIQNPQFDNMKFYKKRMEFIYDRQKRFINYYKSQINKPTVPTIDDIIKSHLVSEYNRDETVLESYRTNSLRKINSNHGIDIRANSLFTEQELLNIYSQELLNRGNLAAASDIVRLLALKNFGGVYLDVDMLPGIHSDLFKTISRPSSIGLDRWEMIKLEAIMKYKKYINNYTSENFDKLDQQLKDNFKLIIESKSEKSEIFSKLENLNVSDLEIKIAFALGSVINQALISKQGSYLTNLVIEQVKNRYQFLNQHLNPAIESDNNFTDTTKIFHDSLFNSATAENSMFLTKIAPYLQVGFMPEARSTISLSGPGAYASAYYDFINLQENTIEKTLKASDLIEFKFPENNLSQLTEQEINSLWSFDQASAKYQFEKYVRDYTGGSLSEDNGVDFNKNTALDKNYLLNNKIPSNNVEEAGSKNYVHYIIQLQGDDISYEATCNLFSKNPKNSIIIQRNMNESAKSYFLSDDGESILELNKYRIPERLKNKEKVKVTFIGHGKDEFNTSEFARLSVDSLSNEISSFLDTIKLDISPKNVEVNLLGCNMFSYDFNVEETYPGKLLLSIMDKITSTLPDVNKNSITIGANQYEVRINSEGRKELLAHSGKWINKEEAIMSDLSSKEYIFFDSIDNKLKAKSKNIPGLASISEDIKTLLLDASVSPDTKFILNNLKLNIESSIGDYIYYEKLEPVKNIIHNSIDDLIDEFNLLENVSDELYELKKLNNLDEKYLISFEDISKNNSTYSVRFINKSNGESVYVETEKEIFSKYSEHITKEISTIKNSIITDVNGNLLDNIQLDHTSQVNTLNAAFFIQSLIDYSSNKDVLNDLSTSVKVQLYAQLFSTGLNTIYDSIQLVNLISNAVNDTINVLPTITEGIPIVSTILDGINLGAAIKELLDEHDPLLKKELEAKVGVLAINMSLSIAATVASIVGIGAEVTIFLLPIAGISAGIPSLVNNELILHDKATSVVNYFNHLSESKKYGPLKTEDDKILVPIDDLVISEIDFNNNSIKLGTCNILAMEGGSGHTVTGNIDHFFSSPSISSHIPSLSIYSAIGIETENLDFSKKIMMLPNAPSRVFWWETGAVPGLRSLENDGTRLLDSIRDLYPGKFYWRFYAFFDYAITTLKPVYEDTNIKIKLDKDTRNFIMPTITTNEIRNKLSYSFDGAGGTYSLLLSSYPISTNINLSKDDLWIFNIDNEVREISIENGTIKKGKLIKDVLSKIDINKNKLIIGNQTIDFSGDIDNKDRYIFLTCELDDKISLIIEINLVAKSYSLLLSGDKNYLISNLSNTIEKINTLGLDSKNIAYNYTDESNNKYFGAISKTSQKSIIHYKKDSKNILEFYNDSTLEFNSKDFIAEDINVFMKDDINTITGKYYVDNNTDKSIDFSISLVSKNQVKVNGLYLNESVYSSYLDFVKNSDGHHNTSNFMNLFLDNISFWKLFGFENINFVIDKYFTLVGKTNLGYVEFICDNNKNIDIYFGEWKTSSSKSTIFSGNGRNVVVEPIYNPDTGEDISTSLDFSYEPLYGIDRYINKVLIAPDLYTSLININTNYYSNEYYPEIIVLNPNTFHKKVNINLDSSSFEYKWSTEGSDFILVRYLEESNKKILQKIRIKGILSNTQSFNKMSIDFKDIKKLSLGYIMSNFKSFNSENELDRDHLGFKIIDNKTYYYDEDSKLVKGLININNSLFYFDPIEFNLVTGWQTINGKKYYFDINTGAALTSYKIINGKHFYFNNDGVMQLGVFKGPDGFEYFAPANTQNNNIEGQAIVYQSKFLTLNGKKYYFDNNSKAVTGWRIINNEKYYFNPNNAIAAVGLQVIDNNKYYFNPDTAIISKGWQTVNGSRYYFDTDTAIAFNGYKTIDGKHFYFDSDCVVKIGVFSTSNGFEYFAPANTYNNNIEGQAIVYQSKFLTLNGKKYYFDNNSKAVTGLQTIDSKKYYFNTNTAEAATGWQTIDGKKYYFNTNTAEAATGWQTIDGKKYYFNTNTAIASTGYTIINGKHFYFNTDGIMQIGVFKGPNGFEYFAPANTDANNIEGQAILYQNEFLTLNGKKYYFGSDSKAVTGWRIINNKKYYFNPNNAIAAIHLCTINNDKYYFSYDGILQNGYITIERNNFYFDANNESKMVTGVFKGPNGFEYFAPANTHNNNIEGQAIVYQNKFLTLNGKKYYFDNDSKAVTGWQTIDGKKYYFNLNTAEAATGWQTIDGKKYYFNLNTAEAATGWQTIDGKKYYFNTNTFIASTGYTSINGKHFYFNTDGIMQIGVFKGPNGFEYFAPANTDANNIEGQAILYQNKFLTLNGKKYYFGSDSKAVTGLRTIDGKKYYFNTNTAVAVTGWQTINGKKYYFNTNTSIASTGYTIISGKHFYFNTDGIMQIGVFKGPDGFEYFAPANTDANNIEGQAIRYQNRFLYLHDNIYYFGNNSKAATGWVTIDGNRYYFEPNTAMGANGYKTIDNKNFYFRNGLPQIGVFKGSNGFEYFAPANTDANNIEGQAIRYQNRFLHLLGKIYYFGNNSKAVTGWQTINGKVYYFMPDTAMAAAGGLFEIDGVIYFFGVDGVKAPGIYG

Binder	EC50 (read off the curve) [nM]
B1	~2

Biological target: T1, Shiga-like toxin 2 (Stx2)
Assay: not given
Remark: another data set of the same source

Binder	EC50 (read off the curve) [nM]
B4	~0.8
B3	~0.1

The binders below were run against anthrax protective antigen (PA) (Bacillus anthracis, UniProt P13423 30-764) (assay: legend of FIG. 29A: VHHs identified that bind each target as indicated).
Sequence of anthrax protective antigen (PA) (P13423 30-764 limits assumed): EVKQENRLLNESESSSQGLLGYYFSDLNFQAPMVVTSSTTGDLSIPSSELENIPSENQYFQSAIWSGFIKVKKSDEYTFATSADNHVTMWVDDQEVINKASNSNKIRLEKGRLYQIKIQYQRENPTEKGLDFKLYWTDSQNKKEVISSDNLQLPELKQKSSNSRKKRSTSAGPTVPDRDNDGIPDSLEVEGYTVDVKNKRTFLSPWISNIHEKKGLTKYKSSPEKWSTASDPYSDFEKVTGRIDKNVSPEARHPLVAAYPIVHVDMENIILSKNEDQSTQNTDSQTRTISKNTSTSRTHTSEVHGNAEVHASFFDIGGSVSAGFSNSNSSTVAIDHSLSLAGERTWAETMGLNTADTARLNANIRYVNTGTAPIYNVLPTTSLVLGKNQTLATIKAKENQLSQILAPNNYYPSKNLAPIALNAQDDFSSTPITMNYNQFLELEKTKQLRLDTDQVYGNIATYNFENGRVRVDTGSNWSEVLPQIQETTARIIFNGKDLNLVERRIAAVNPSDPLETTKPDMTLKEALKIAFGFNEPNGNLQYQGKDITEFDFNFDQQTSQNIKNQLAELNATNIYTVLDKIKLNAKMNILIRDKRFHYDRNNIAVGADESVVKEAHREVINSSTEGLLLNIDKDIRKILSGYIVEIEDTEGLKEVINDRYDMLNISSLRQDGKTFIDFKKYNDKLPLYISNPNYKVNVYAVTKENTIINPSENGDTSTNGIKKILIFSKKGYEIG

Binder	binding result
B7	binds
B8	binds
B9	binds
B10	binds
B11	binds
B12	binds
B13	binds
B14	binds
B15	binds
B16	binds
B17	binds
B18	binds

These binders were tested against T3, Botulinum neurotoxin serotype A1 … (assay: VHH selection; binding competition).

Binder	binding result
B19	binds
B20	binds
B21	binds
B22	binds
